Results published in publication PMC9622777, “Eradication of tumors and development of anti-cancer immunity using STINGa targeted by pHLIP” (Frontiers in Oncology, 2022).
Where a SMILES comes first, the peptide text is derived from it. [ ]: non-standard residue; d: D form. The star is where a group is joined. X1 = CCn1nc(C)cc1C(=O)Nc1nc2cc(C(N)=O)cc(OC)c2n1C/C=C/Cn1c(NC(=O)c2cc(C)nn2CC)nc2cc(C(N)=O)cc(OCCC[N+]3(Cc4ccc(NC(=O)OCCS*)cc4)CCOCC3)c21

Columns and labels:
CT26 tumors = assay: Treatment of small (100 mm^3) CT26 tumors in Balb/c mice; assay type: in vivo, mouse; conditions: single injection, same molar dose level as pHLIP-STINGa
Procedure: On day 1, when tumors reached size of 100 mm^3 (“small tumors”) or 400-700 mm^3 (“large tumors”), mice were randomized into groups, body weight was measured and agents including pHLIP(Laa)-STINGa, pHLIP(Daa)-STINGa, pHLIP(Laa), STINGa (diABZI) or vehicle were given as a single intraperitoneal (IP) or intravenous (IV) injection. Vehicle, pHLIP(Laa), STINGa (diABZI) and pHLIP(Laa)-STINGa were given as a single IP injection of 100 μM 300 µl. pHLIP(Daa)-STINGa was given as a single IV injection of 200 μM 150 μl. The compounds were dissolved in DMSO as a stock solution and transferred to 20% PEG400 in saline containing 0.9% sodium chloride (vehicle). The residual DMSO in the final solution injected into animals was less than 2%. Tumor volume and body weight were measured 3 times per week throughout the study. Measurements of tumors were performed using calipers, and the tumor volume (V) was calculated with the formula: […]
where L is the length and W is the width of the measured tumor. Mice were removed from the study and euthanized when the tumor volume was greater than 2000 mm^3.

[1] = STINGa on its own; ref [11]; cited from earlier work
[2] = mouse, in vivo, iv
Procedure: (§1) For pharmacokinetics (PK), biodistribution, pH imaging studies and immunohistochemistry, 5x10^4 of CT26 cancer cells were injected SQ in 100 µl of growth medium into the right flank of female Balb/c mice and tumors were grown until they reached 150-200 mm^3 in volume. […] Animals were euthanized at 2, 4, 24, 48, 72 and 96 hours post-injection, blood was collected in K2 EDTA vacutainer blood collection tubes (BD), and necropsy was performed immediately after euthanization. Blood, tumors and major organs (kidney, liver, spleen, pancreas, lung, heart, large and small intestines, bone, muscle, brain) were collected, and imaged ex vivo immediately after necropsy. Blood (150 µl) was imaged in 96-well plate with black bottom and walls. […] The fluorescence at zero-time point was taken as 100% and fluorescence recorded at 2, 4, 24 and 48 hrs p.i. were calculated as a percentage of zero-time point signal. […]
(§2) The in vivo and ex vivo bright field and near-infrared fluorescent imaging was performed using a Stryker 1588 AIM endoscopic system with L10 AIM Light Source (808 nm excitation and collection of light in the range of approximately of 815 to 850 nm), and a 1588 AIM Camera using a 10 mm scope. […] The calculated total fluorescence intensity and total area of each organ were used to calculate the mean organ fluorescence.

CT26 tumor = conditions: mouse, in vivo
Procedure: as §1, §2

[3] = test system: tumor stroma and immune cells within CT26 tumors; assay: FACS analysis of uptake by tumor stroma and immune cells within CT26 tumors; conditions: mouse, in vivo, ip
Procedure: Animal studies on mice were conducted at the Charles River Discovery Service in compliance with the principles and procedures outlined by the National Institutes of Health for the care and use of animals. Uptake of Al647-pHLIP(Laa)-STINGa by tumor cells within CT26 tumors was analyzed by fluorescence activated cell sorting (FACS) analysis. […] When tumors reached 150-250 mm^3 in volume mice were separated into two groups. Eight mice from the treated group #1 received a single IP injection of Al647-pHLIP(Laa)-STINGa (300 µM 100 µl), and five mice from the control group #2 received single IP injection of vehicle (1% DMSO in PBS). 24 hours later all animals were euthanized, and tumors were collected for processing. Tumor stroma and immune cells were identified using the following markers:
• CD4 T cells: CD45^+, CD3^+, CD11b^-, CD4^+, CD8^- • CD8 T cells: CD45^+, CD3^+, CD11b^-, CD4^-, CD8^+ • Treg: CD45^+, CD3^+, CD11b^-, CD4^+, CD25^+, FoxP3^+ • mMDSC: CD45^+, CD3^-, CD11b^+, F4/80^-, Ly6C^high, Ly6G^- • gMDSC: CD45^+, CD3^-, CD11b^+, F4/80^-, Ly6C^low, Ly6G^+ • M1: CD45^+, CD11b^+, F4/80^+, CD206^- • M2: CD45^+, CD11b^+, F4/80^+, CD206^+ • DC: CD45^+, CD11b^+, CD11c^+, MHCII^+, F4/80^- • CAF: CD3^-, CD45^-, CD140b^+
The staining was performed for tumor samples, Fluorescence Minus One (FMO) controls and Single Color Controls (SCC) as indicated below:
The following anti-mouse antibodies were used: CD45-APC-Fire750 clone 30-F11, CD8a-BV650 clone 53-6.7, CD25-BV605 clone PC61, F4/80-PE-Dazzle-594 clone BM8, Ly-6C-FITC clone HK1.4, Ly-6G-BV785 clone 1A8, CD206-BV421 clone C068C2, CD140b-PE clone APB5, CD11c-BV711 clone N418, I-A/I-E-PE/Cy7 clone M5/114.15.2 from BioLegend; CD3e-BUV496 clone 145-2C11, CD4-BUV395 clone GK1.5; CD11b-BUV737 clone M1/70 from BD Biosciences, FoxP3 PerCP-Cy5.5 clone FJK-16s from Thermo Fisher and Live/Dead Aqua-V500 from Life Technologies. The procedure for tumor processing was the following: tumor samples were dissociated according to the manufacturer’s instructions using the gentleMACS™ protocol “Tumor Dissociation Kit”. Samples were filtered through a 70 µm cell strainer and rinsed twice in PBS/2.5% FBS buffer and total sample volumes were measured. Single cell suspensions were prepared in PBS pH 7.4 at 1x10^7 cells/mL and placed into individual wells of a 96-well plate and kept on ice. All incubation steps were carried out protected from light. The washing was performed by spinning the plate at 300x g (or 400x g) for 3 minutes and discarding the supernatant. Live/Dead reagent was added to each sample and incubated at 4°C for 15 minutes followed by washing. […]

[4] = Stability in mouse plasma; assay type: in vitro ADME
Procedure: (§3) To establish the stability of pHLIP(Laa)-STINGa and pHLIP(Daa)-STINGa in plasma, pHLIP-STINGa was mixed with single donor human or BALB/c mouse plasma (Innovative Research) at a concentration of 200 μM, and kept in plasma for 0, 2, 4 or 24 hours at 37°C. Plasma proteins were precipitated by methanol (1:5 volume ratio of plasma to methanol) and centrifugated for 10 min at […]. The supernatant was collected and analyzed by HPLC using a Zorbax SB-C18 4.6 × 250 mm, 5 μm column with a gradient from 10% to 75% acetonitrile in water containing 0.05% TFA. Chromatograms were recorded at 220 nm, 280 nm and 320 nm. As controls pHLIP(Laa), pHLIP(Daa), Pys-PAB-STINGa, SH-PAB-STINGa, where Pys-PAB-STINGa was conjugated with a Cys residue, and diABZI (In vivogen) were analyzed for stability in plasma under the same conditions.

[5] = Stability in human plasma; assay type: in vitro ADME
Procedure: as §3

mouse plasma proteins = assay: Binding to mouse plasma proteins (plasma stability study); assay type: in vitro ADME; conditions: BALB/c mouse plasma, 200 μM, 37°C, HPLC
Procedure: as §3

human plasma proteins = assay: Binding to human plasma proteins (plasma stability study); assay type: in vitro ADME; conditions: for amount of product bound to plasma proteins (in brackets): single donor human plasma, 200 μM, 37°C, HPLC
Procedure: as §3

diABZI [STINGa]
time by which all animals developed tumors (CT26 tumors): ≤ 35 days p.i.
half-life [1]: 1.4 h

AKDDQNPWRAYLDLLFPTDTLLLDLLWCG [ICG-pHLIP-STINGa]
half-life in blood [2]: 8.2 h
persistence of fluorescence signal in the tumor (CT26 tumor): 8 days

AKDDQNPWRAYLDLLFPTDTLLLDLLWCG [Al647-pHLIP-STINGa]
% of cells taken Al647-pHLIP-STINGa: CAFs [3]: 74%
% of cells taken Al647-pHLIP-STINGa: CD8 T-cells [3]: 24%
% of cells taken Al647-pHLIP-STINGa: DCs [3]: 52%
% of cells taken Al647-pHLIP-STINGa: TAMs (CD206+) [3]: 71%

CCn1nc(C)cc1C(=O)Nc1nc2cc(C(N)=O)cc(OC)c2n1C/C=C/Cn1c(NC(=O)c2cc(C)nn2CC)nc2cc(C(N)=O)cc(OCCC[N+]3(Cc4ccc(NC(=O)OCCSSC[C@@H](NC(=O)[C@@H](Cc5c[nH]c6ccccc56)NC(=O)[C@@H](CC(C)C)NC(=O)[C@@H](CC(C)C)NC(=O)[C@@H](CC(=O)O)NC(=O)[C@@H](CC(C)C)NC(=O)[C@@H](CC(C)C)NC(=O)[C@@H](CC(C)C)NC(=O)[C@H](NC(=O)[C@@H](CC(=O)O)NC(=O)[C@H](NC(=O)[C@H]5CCCN5C(=O)[C@@H](Cc5ccccc5)NC(=O)[C@@H](CC(C)C)NC(=O)[C@@H](CC(C)C)NC(=O)[C@@H](CC(=O)O)NC(=O)[C@@H](CC(C)C)NC(=O)[C@@H](Cc5ccc(O)cc5)NC(=O)[C@@H](C)NC(=O)[C@@H](CCCNC(=N)N)NC(=O)[C@@H](Cc5c[nH]c6ccccc56)NC(=O)[C@H]5CCCN5C(=O)[C@@H](CC(N)=O)NC(=O)[C@@H](CC(=O)O)NC(=O)[C@@H](CCC(N)=O)NC(=O)[C@@H](CC(=O)O)NC(=O)[C@@H](C)N)[C@H](C)O)[C@H](C)O)C(=O)NCC(=O)O)cc4)CCOCC3)c21 [pHLIP(Daa)-STINGa] (H-[dA][dD][dQ][dD][dN][dP][dW][dR][dA][dY][dL][dD][dL][dL][dF][dP][dT][dD][dT][dL][dL][dL][dD][dL][dL][dW][dC](X1)G-OH; N-terminus and C-terminus assumed)
amount of undegraded product (free fraction) ([4]; BALB/c mouse plasma, 200 μM, 37°C, 0 h, methanol precipitation, HPLC C18, UV 220/280/320 nm): 99.4%
remaining at 2 h, 200 μM ([4]; BALB/c mouse plasma, 200 μM, 37°C, 2 h, methanol precipitation, HPLC C18, UV, read-out: amount of undegraded product (free fraction)): 90.9%
remaining at 4 h, 200 μM ([4]; BALB/c mouse plasma, 200 μM, 37°C, 4 h, methanol precipitation, HPLC C18, UV, read-out: amount of undegraded product (free fraction)): 84.5%
remaining at 24 h, 200 μM ([4]; BALB/c mouse plasma, 200 μM, 37°C, 24 h, methanol precipitation, HPLC C18, UV, read-out: amount of undegraded product (free fraction)): 58.2%
modified STINGa released from pHLIP ([4]; incubated with mouse plasma, 37°C (text summary of Table S1)): about 40%
metabolised at 24 h, 200 μM ([5]; human plasma, over 24 hours, 37°C (text summary of Table S1), read-out: degradation): ~10%
amount of undegraded product (free fraction) ([5]; single donor human plasma, 200 μM, 37°C, 0 h, methanol precipitation, HPLC C18, UV): 99.4%
remaining at 2 h, 200 μM ([5]; single donor human plasma, 200 μM, 37°C, 2 h, methanol precipitation, HPLC C18, UV, read-out: amount of undegraded product (free fraction)): 99.2%
remaining at 4 h, 200 μM ([5]; single donor human plasma, 200 μM, 37°C, 4 h, methanol precipitation, HPLC C18, UV, read-out: amount of undegraded product (free fraction)): 97.6%
remaining at 24 h, 200 μM ([5]; single donor human plasma, 200 μM, 37°C, 24 h, methanol precipitation, HPLC C18, UV, read-out: amount of undegraded product (free fraction)): 89.6%
amount of product bound to plasma proteins (in brackets) (mouse plasma proteins; 0 h): 0%
amount of product bound to plasma proteins (in brackets) (mouse plasma proteins; 2 h): 51.7%
amount of product bound to plasma proteins (in brackets) (mouse plasma proteins; 4 h): 59.6%
amount of product bound to plasma proteins (in brackets) (mouse plasma proteins; 24 h): 75.9%
binding to plasma proteins, in words (human plasma proteins; compared with the Laa version, especially human plasma proteins): much stronger binding to plasma proteins than the Laa version
amount of product bound to plasma proteins (in brackets) (human plasma proteins; 0 h): 0%
amount of product bound to plasma proteins (in brackets) (human plasma proteins; 2 h): 77.2%
amount of product bound to plasma proteins (in brackets) (human plasma proteins; 4 h): 84.4%
amount of product bound to plasma proteins (in brackets) (human plasma proteins; 24 h): 87.7%
